Results published in article PMC13098475.

Molecular target: traptavidin (streptavidin-variant), expressed and purified by IMAC (Streptomyces avidinii) (UniProt P22629)
Assay: native MS; native electrospray ionization mass spectrometry of the IMAC-purified proteins; oligomeric state of the protomers (tetramer), no cross-linker

A percent of the protein that is tetrameric of 95% and a stoichiometry N of 4 were found for “traptavidin (streptavidin-variant), expressed and purified by IMAC (from UniProt P22629 25-183) (natural protein)” in this work.
